The test system of this series is ATP. Nature of the series: switch fluorescence ratio, 500 uM ATP over buffer (Cy3 cluster intensity, sum of 5 cycles each) (fold (ratio)); higher = stronger signal-on switching upon ATP binding; sequences stand for … in TCGTCGGCAGCGTCAGATGTGTATAAGAGACAGTTTTTTTTTTTTTTTTTTTTTTTTT…TC. Conditions: aptamer strand: ATP DNA aptamer (quencher-CACCTGGGGGAGTATTGCGGAGGAAGG + anchor), 100 nM annealed; ATP concentration: 500 uM. The procedure, abridged: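 Per cluster, summed Cy3 intensity from the target cycles was divided by that from the buffer cycles to give the fluorescence ratio, then averaged per switch-domain sequence. Clusters outside 100-1000 RFU were excluded. The Cy3-labelled switching-strand clusters, on a modified Illumina MiSeq flow-cell, were annealed to 100 nM quencher-labelled ATP aptamer and imaged in selection buffer, then after 15 min with 500 uM ATP at 22 °C, for five cycles with NaOH stripping and re-annealing between them.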

The record followed here is the supplement of paper PMC10126150.

± gives the standard deviation of the averaged measurements.
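Note: ATP exposure 15 min at 22 °C before imaging.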

Take CCGAAATGGG: the switch fluorescence ratio was 1.5 ± 0.07. In the case of CCGAACTTTT, the switch fluorescence ratio was 1.07 ± 0.075. As to CCGAAGAGTC, the switch fluorescence ratio was 1.66 ± 0.28.

As for CCGAATTGTA, the switch fluorescence ratio came out at 1.03 ± 0.016.

Take CCGACCAGGG: the switch fluorescence ratio was 1.3 ± 0.13. The result for CCGACTAAAA reads 4.27 ± 0.41.

As for CCGAGAAAAA, the switch fluorescence ratio amounted to 1.12 ± 0.14. The result for CCGAGAATCG reads 1.02 ± 0.036; that for CCGAGCGGGA, 1.77 ± 0.37; that for CCGAGGGGGT, 1.81 ± 1.1. The result for CCGATGGGCC reads 1.22 ± 0.028. On to CCGATTGTGT, for which the switch fluorescence ratio was 1.11 ± 0.017.

Consider CCGCAGAGTG, for which the switch fluorescence ratio worked out at 3.98 ± 2.1. As for CCGCCAGGTC, the switch fluorescence ratio is 2.55 ± 0.13.

As for CCGCCTTGGG, the switch fluorescence ratio is 1.09 ± 0.029. In the case of CCGCGACGGG, the switch fluorescence ratio worked out at 1.69 ± 0.48.

For CCGCGCCGAT, the switch fluorescence ratio was determined as 1.37 ± 0.16. Consider CCGCGGGGTG, for which the switch fluorescence ratio was 2.2 ± 0.77. As to CCGCGGGTTT, the switch fluorescence ratio is 1.08 ± 0.075. As for CCGCGTCGCT, the switch fluorescence ratio came to 1.317 ± 0.0055. CCGCTAGGGC: the switch fluorescence ratio amounted to 2.1 ± 1.2. Regarding CCGCTTCCGG, the switch fluorescence ratio amounted to 1.08 ± 0.018. Regarding CCGGAAGACG, the switch fluorescence ratio was determined as 1.39 ± 0.18. Consider CCGGAAGAGA, for which the switch fluorescence ratio is 1.09 ± 0.035. The result for CCGGACCAGA reads 1.15 ± 0.057; that for CCGGACTATC, 2.4 ± 0.086; that for CCGGACTTGG, 0.96 ± 0.09. For the sequence CCGGATTAA, the switch fluorescence ratio was found to be 1.02 ± 0.039.

On to CCGGCGCGTT, for which the switch fluorescence ratio is 1.96 ± 1.3. The result for CCGGCGGGCT reads 1.05 ± 0.013; that for CCGGCGGTTG, 1 ± 0.012; that for CCGGCTTACG, 1.2 ± 0.1. For the sequence CCGGGAGGAT, the switch fluorescence ratio came to 0.987 ± 0.035.

Regarding CCGGGAGTTA, the switch fluorescence ratio turned out to be 1.15 ± 0.034. Turning to CCGGGCGACA, the switch fluorescence ratio was found to be 1.11 ± 0.031. Consider CCGGGCGGGG, for which the switch fluorescence ratio is 1.07 ± 0.018. On to CCGGGCGTA, for which the switch fluorescence ratio was determined as 1.15 ± 0.083.

Take CCGGGGAAGG: the switch fluorescence ratio came to 1.04 ± 0.0092. For the sequence CCGGGGGAGG, the switch fluorescence ratio was 1.06 ± 0.048.

As for CCGGGGGGAA, the switch fluorescence ratio was 1.03 ± 0.063. On to CCGGGGGGCG, for which the switch fluorescence ratio was determined as 0.976 ± 0.053. For CCGGGGGGTT the value was 1.09 ± 0.14; for CCGGGGTACA, 1.17 ± 0.17; for CCGGGGTGTG, 1.08 ± 0.012. In the case of CCGGGTTAGT, the switch fluorescence ratio was determined as 1.06 ± 0.017. CCGGGTTGTA: the switch fluorescence ratio came out at 1.02 ± 0.046. In the case of CCGGGTTTGG, the switch fluorescence ratio was found to be 0.984 ± 0.017. For CCGGGTTTTG the value was 1.017 ± 0.0016; for CCGGTAGGGA, 1.01 ± 0.021; for CCGGTCTGGC, 1.01 ± 0.013.

Consider CCGGTCTTTT, for which the switch fluorescence ratio amounted to 0.961 ± 0.018. For the sequence CCGGTGACGA, the switch fluorescence ratio is 1.053 ± 0.0041. For CCGGTGGGGT the value was 1.01 ± 0.03; for CCGGTGTGCC, 1.01 ± 0.052.

CCGGTTCATT: the switch fluorescence ratio was 1.0368 ± 0.00072. With CCGGTTTGGG, the switch fluorescence ratio is 0.988 ± 0.042. CCGTAACGGG: the switch fluorescence ratio came to 1.09 ± 0.085.

As for CCGTAATATT, the switch fluorescence ratio was determined as 3.69 ± 1.8. CCGTAATGGG: the switch fluorescence ratio amounted to 1.85 ± 0.038. Take CCGTAGAATT: the switch fluorescence ratio stood at 1.68 ± 0.046.

On to CCGTATAGCT, for which the switch fluorescence ratio was found to be 1.24 ± 0.039. For the sequence CCGTCTCTCC, the switch fluorescence ratio was found to be 1.73 ± 0.093.

Turning to CCGTGATATG, the switch fluorescence ratio came to 2.492 ± 0.0084. Take CCGTGATGGG: the switch fluorescence ratio amounted to 1.14 ± 0.066. As for CCGTGCACAT, the switch fluorescence ratio is 2.679 ± 0.0035. In the case of CCGTGCTCTA, the switch fluorescence ratio worked out at 1.281 ± 0.0015.

Regarding CCGTGGAAAG, the switch fluorescence ratio was found to be 1.02 ± 0.027.

As to CCGTGGCGCA, the switch fluorescence ratio was 1.88 ± 0.21. With CCGTGGTAGG, the switch fluorescence ratio amounted to 1.01 ± 0.018. As to CCGTTATAGT, the switch fluorescence ratio was 1.795 ± 0.012.

Consider CCGTTCCCGT, for which the switch fluorescence ratio was determined as 1.13 ± 0.028. For the sequence CCGTTGGGTG, the switch fluorescence ratio came out at 1.12 ± 0.071. On to CCGTTGGTAA, for which the switch fluorescence ratio amounted to 1.345 ± 0.0022. Take CCGTTGTCTT: the switch fluorescence ratio came out at 1.03 ± 0.025.

For CCGTTTCCGG, the switch fluorescence ratio is 1.02 ± 0.027. CCGTTTCTGG: the switch fluorescence ratio was found to be 1 ± 0.063. Turning to CCGTTTGGGA, the switch fluorescence ratio worked out at 0.998 ± 0.032. The result for CCGTTTTCGG reads 0.952 ± 0.053.
